Test: soluble on expression in E. coli; label from the status in PepcDB or PDB records

Sequence	soluble on expression in E. coli
EKDTIAAEHKQEASVLLNLHRNKINYLIGETMARMTSLSIAIDRPVDIKKMQSILEKTFDSEPRFSGLYFLNAKGDVTASTTELKTKVNLADRSFFIKAKETKKTVISDSYSSRITGQPIFTICVPVLDSKRNVTDYLVAAIQIDYLKNLINLLSPDVYIEVVNQDGKMIFASGQASHAEDQKPVSGYLDDISWNMKVYPNPVTIEELSKS	not soluble
MATAPYGVRLLVGAATVAVEETMKLPRTILMYPMTLASQAAHVVMRFQQGLAELVIKGDNTLETLFPPKDEKPEWATFDEDLPDALEGTSIPLLGLSDASEAKNDDRRSDGRFALYSVSDTPETTTASRSADRSTNPKTAKHPKSAAKPTVPTPAVAAELDYPALTLAQLRARLHTLDVPELEALLAYEQATKARAPFQTLLANRITRATAK	not soluble
AATSRDALPNTEASGPTHSKEIPALTAVETGATNPLVPSDTVQTRHVVQHRSRSESSIESFFARGACVTIMTVDNPASTTNKDKLFAVWKITYKDTVQLRRKLEFFTYSRFDMELTFVVTANFTETNNGHALNQVYQIMYVPPGAPVPEKWDDYTWQTSSNPSIFYTYGTAPARISVPYVGISNAYSHFYDGFSKVPLKDQSAALGDSLYGAASLNDFGILAVRVVNDHNPTKVTSKIRVYLKPKHIRVWCPRPPRAVAYYGPGVDYKDGTLTPLSTKDLTTY	soluble
MDDATEQEVFNRMQMTQFEEKRFELRETCPKCHQILSSELSRLWHQFVHMDAYNGFLDGKFQIQLPDFEFVRSNVIPCPFSTCSLLFLDLIDARFHYLLEHQSCQLFCCGVRFSDYKTALEHLQGTGSVETEAWDQQKHFLKPVYICNCCNRTWSSRSEYVAHLHGRDHMCPDPVCKYIFETNEKCIRHFFEQHYKHLFLDSRHLLLNYKDHMCVPHVNADFGTTRGFRATWQARIVNFLIEKS	not soluble
MSLETLRIANRMLGYAAYEWRLSSLDGQKVMSSSGICLEVDTCLADERRYVSGENRPEMAIICSGIDVDQHVNKSVNAWLREAYNRGIAIGSLCTAAHILAQAGLLNGKRCAIHWENLPGFSEAFPQVEVYADLFEVDSNIYTCAGGTASLDMMLSLIGQDFGENLVNRVCEQQLTDRVREGHHHHHH	not soluble
MKGYSMAKCLTLNTHSWMEVNALKKLFDLAEHIFREKYDIICLQEVNQSISSPLAKSSPNYHPIEGTPALHQDNFALQLVHYLNLQGLHYHWTWAYNHIGYSKYHEGVAILSLKPLKPEDILVSAVDDETDYHTRRALVAETTLNDKVVTVVSLHFSWFEKGFAEEWKRLETTLLEVETPLLLMGDFNNPTGNQGYELVLNSPLALKDSHQIANHVFGDHTIMADIDGWEGNKKALKVDHIFTSEDLSISSSQVVFEGGEAPVVSDHYGLEITMDF	not soluble
MGSDKIHHHHHHMSSGITPPLIAGNLALDFINTQFGVGADRYECLNDDSSVVEWLHQAGVLNDTLAAPPAGLVERARELREDMQTLIVSAREGRGADPAIVNQVLERGHPIERLEWVPAYAAFQKQTYRRDLTSESLLQPVAQALVELLTKEDLHLVKECQAPDCVLLFHDQTKSHRRRWCSMASCGNRMKAAAHRARKSAT	not soluble
MSLGYWGVMGNCFRRLSLFGQPTQAKYEMLCSSDDLETEELTFFLDMTYKDFGVYQNDIISHQKDTETMKTLLGLLPMYKKTKLRHTVMERCLSNCPNHVKDALCVELMKAEKILQTMDVVFMKTLIGEFSMCTENLNQLLNKFATDQSTLSDVEKINSLIEIDGENSKRLLVELDPILHEETGLYQALPNVVTEAPSEKVKSIRVESEGESV	not soluble
MGSDKIHHHHHHTIVSCSDDKGEDGYNPNLPVRISELSPQEGGYFDKVILQGENFGNNPKKVRVFFNKKEAIVVGASGDRVLVHVPKLPGDDCKIGMLLNGNTTDTIFAEKHFAYEKNYQLIYVAGQLNSNTETFVEGSLETTTFANSMQHLACDPSGVIYMNHKNQVKVAVLFTLMNLRTTLSFWIMEHLLKTEARLALRIMMTKQRRFTSVRTMLHFFGKLILRIHGLL	not soluble
MDDQIKQIAERLRGLRDVLELTAEDIARDCEISAEEYRLAETGDYDISVSMLQKIARKYGIALDALMFGEEPKMSSYFLTRAGKGTSIERTKAYKYQSLAAGFMNRNADPFIVTVEPKPDIEPIHYNSHSGQEFNLVLEGRMMISIDGKDLILNEGDSLYFNSKLPHGMKALDGKTVRFLAVIM	not soluble
MQNMFDGVQLFVEVVEAGGFAKAGKRLSLTRSTIGKAIARLEMRLGVQLFQRTTRVQSLTEDGQQYYERCLRAIKELRAGEAMLEQGRREVAGRLHVSLPVLFGRQCVAPILRTYAREHPQLELELNFSDHHVDLIADGFDLAVRNGPLGNGTTLRARRLGNQRKILCASPTYLAARGKPHTLADLADHDLLTYCRNDRNMAWTLPDATGALVDIPITSRLRCNDLEVIADTAVDGMGVAWLPYWLLMERMQRGELIGIWGDRPSAVIECHVVWPAAQHVPLRSRLAINLLAAELPKYLEA	not soluble
MKKTIISTLVIGLVSGCSNTNLLKDNLASEQSVINLSKSSNEAKSRNIEFLSGAYLSERKVPKHDIKFSGKYVEFESKSPIELIDVLDGLSKQYNIQYVFSDELEDENSEENKKSSGSSSAKKIKYSGPLAGFFDYLSSAYNMHFEFGHNNLVKAYHYKNQVFNLQQYFDDNKFSSSMQIGGTSGTSSGLKGTADTAIESNSWEKIDEFLSASLGETGKFTIFEDYSLVTVKARPDKFLLLHTFFDKLINESKMQIAVDYRVVSLSEERLNQLAAKFGIENAGKYSITSDMVDAISLSQVGGGLGASYRSASARLDAVVNELSQEVMHEGHFIGIPNRVMPLNVTTNSKYISSIETTKDTNTDEETRTVKVSDLVTGFSMMVMPKILDDGRIQISSGFSRKQLVSIGTAQGITLPTVDENESMNTVTMNPGEVRLAMLFKDNYIQNSNGVQLLGGGTENKKSARYIAVLVGASSYKTNDLASNRVNIYD	not soluble
MFDDKILLITGGTGSFGNAVMKQFLDSNIKEIRIFSRDEKKQDDIRKKYNNSKLKFYIGDVRDSQSVETAMRDVDYVFHAAALKQVPSCEFFPVEAVKTNIIGTENVLQSAIHQNVKKVICLSTDKAAYPINAMGISKAMMEKVFVAKSRNIRSEQTLICGTRYGNVMASRGSVIPLFIDKIKAGEPLTITDPDMTRFLMSLEDAVELVVHAFKHAETGDIMVQKAPSSTVGDLATALLELFEADNAIEIIGTRHGEKKAETLLTREEYAQCEDMGDYFRVPADSRDLNYSNYVETGNEKITQSYEYNSDNTHILTVEEIKEKLLTLEYVRNELNDYKASMR	not soluble
ENGRLVELPDNDKSDALQFLATILEAVPSIPAGSNIVEIVLEHEKNSNTSLGFGWACPHARVNFDGDLCCAIGWSPAGIDYGIAGEPLVRLVVMFFVPENQRNTYLKEVSTLARVLKSNPEFQNLEPIGDLDQVRNTLLDMTHQAMSE	not soluble
AVKVGINGFGRIGRNVFRAALKNPDIEVVAVNDLTDANTLAHLLKYDSVHGRLDAEVSVNGNNLVVNGKEIIVKAERDPENLAWGEIGVDIVVESTGRFTKREDAAKHLEAGAKKVIISAPAKNEDITIVMGVNQDKYDPKAHHVISNASCTTNCLAPFAKVLHEQFGIVRGMMTTVHSYTNDQRILDLPHKDLRRARAAAESIIPTTTGAAKAVALVLPELKGKLNGMAMRVPTPNVSVVDLVAELEKEVTVEEVNAALKAAAEGELKGILAYSEEPLVSRDYNGSTVSSTIDALSTMVIDGKMVKVVSWYDNETGYSHRVVDLAAYIASKGL	soluble
MQDILFDFISTYISLTEDEKNALLSLDLFRSVPKGTILLKEGQKSQESYFVLKGCIRIYYIIDGEEKTTAFYTEMDALTPPCVIHNAPSEYFISCIEDSILTVSNLEMEAEINSKFPKFELMCRMLSEELLAKQQIDFDAFKTSSPEQRYLNVLQNRPDLIQRVPQHQLASFLGIKPQSLSRLRARIVDKKS	not soluble
MGSDKIHHHHHHMKKLLLTAAITLTMPFAAHAGSEFVEGDATLAGEAELGATLTTGNTDTSSFKARLALKQELGDWENEYVFEGLYKEDTEEVTAKRYFLGVQGDYQINDVSYLFANTNYEVDPFTGYDFTSTTSAGYGHRFIDTDRMSLKAEAGPGYIYQQLDEESALAEGYDSDDSVVAHAVIDFQTKISDSSKFQQKFVADWGSKLDARSETSLTANIVGALAMKFAVIVRYNSEPLDDKESTDTETNMTLLYAF	not soluble
MSLTAHGLCEFIDASPSPFHVCATVAGRLLGAGYRELREADRWPDKPGRYFTVRAGSLVAWNAEQSGHTQVPFRIVGAHTDSPNLRVKQHPDRLVAGWHVVALQPYGGVWLHSWLDRDLGISGRLSVRDGTGVSHRLVLIDDPILRVPQLAIHLAEDRKSLTLDPQRHINAVWGVGERVESFVGYVAQRAGVAAADVLAADLMTHDLTPSALIGASVNGTASLLSAPRLDNQASCYAGMEALLAVDVDSASSGFVPVLAIFDHEEVGSASGHGAQSDLLSSVLERIVLAAGGTREDFLRRLTTSMLASADMAHATHPNYPDRHEPSHPIEVNAGPVLKVHPNLRYATDGRTAAAFALACQRAGVPMQRYEHRADLPCGSTIGPLAAARTGIPTVDVGAAQLAMHSARELMGAHDVAAYSAALQAFLSAELSEAEGHHHHHH	not soluble
MGSDKIHHHHHHMSLLVKAYRYGYTIARVTPASACWRYVGFAAYRLGTAEVVHVHEPSREVCIVVLTGTVDIETADTTWRSLGSRDSVFEDAAPYAVYLPPNVRATVRACRDAEIGVASAPARGGYPARLIEPASMKRSTRGKGLNTRYVCDILPQTEPAESLLVVEVRTPGGHASSYPPHKHDTDNVPQESSLEETYYHRLDPPQGFAFQRVYTDMRDIDESMAVEDHDVVMVPRGYHPVVVPYGYDSYYLNVMAGGKRVWHFRNDPAHEWIINKDA	not soluble
MGHHHHHHSHMGVPYSVLEPVLERCTPDQLYRIEEYNHVLIEETDQLWKVHCHRDFKEERPEEYESWREMYLRLQDAREQRLRVLTKNIQFAHANKP	soluble
MDSGINNISRFRIDHSFHKLHYAMHSAHSHTYYELFYMMHGNCTISIDNRLFTLSEGNIIFIPANSVHRTSYIGELVPERTYIEFSKDYIETISQTLGKNWAEHNLWGHILYIEKEKREKIDFLFREIQKEYDIVDGYSDCCIRQLFQYLIINLIRLDRNTKDIKEFITNSDNKINQNMIIAAKYIAENFKNDITLKDVASHLNLNPSYFSSKFKAFNNIGFAEYLRNIRVNHAEWYLIETDLSLSDIASECGFCNSNYFGDTFKLVNGISPSEFRKNNKPKKAEN	not soluble
MISPQEQQKQEIATTPSGTKENEKLVVPGVQVALENISTKSVLNAVNYKYAQLFHREQVSSAQSNTTSKQYIEERKTSNGTIGEVLRKFEKGRLLGKGGFAKVYQLTDIHTHQKYAGKIIPKNAIRKESAKQKLISEIRIHRELRHRHIVKFESCFEDQENVYIVLELCPNGSIMDMVRQRGRLTEYETRYFMIQILDAIRYMHRECLVIHRDLKLGNFFLDENMEVKIGDFGLAAQLSSDKERKRTICGTPNYIAPEILSGKQGHSFEVDIWSTGVVFYTMLVGKPPFETSDVKSTYKRIKENIYSIPESLDLSTSAIELIGSILNSDPAKRLSLDEIRSHPFFDAKIPRALSIHALKSTPVFEESELIERNKESSSYKKGRENRQQTVVGSSGLWNDVIQSISQDQRTPLQKLQQHIKSNAAKNNDHAEKLHQALEKHLQLNDNQSKKEEKLLESQEAHSKSTKGIFDKGLDTQSEDEERMVLNKVRDQLTSSFALLKNAEQSPYAFTSSLNTNDGTTSGSPSFQSPVNALTGGAWICKWLDYSKKYGLGYQTCLGSTGVCFNDGTQIILEKGQQNWIYYMKRTESHEERNENKWIKMTMEDYPSELQKKVKLLIHFRNYMLDHTPKGQEDPLISPESSFQNIDTSNETCGAKDATRPVYIKTWFRSPYAIIFRLSNRNIQVDFNDGTEVILSPEVHVVTYRGKDGRRNSYQQGHLPSLPELLKRLRYVMDLLQEMLNRKTS	soluble

— the DeepSol protein solubility set
